PMC12594171, “DKK3-LRP1 complex and a chemical inhibitor regulate Aβ clearance in models of Alzheimer’s disease” (Science Advances, 2025)

Target: mLRPIV-HA, stably expressed in SH-SY5Y
Assay: co-IP + ELISA; SH-SY5Y cells stably expressing mLRPIV-HA incubated with Aβ42 and 1 to 200 nM DKK1 or DKK3; mLRPIV-HA precipitated with anti-HA affinity gel; Aβ42 in the eluate by ELISA

percent reduction of Aβ42 binding to mLRPIV at 20 nM DKK1: 44%
B1: DKK1-Flag (ligand)
chain: TLNSVLNSNAIKNLPPPLGGAAGHPGSAVSAAPGILYPGGNKYQTIDNYQPYPCAEDEECGTDEYCASPTRGGDAGVQICLACRKRRKRCMRHAMCCPGNYCKNGICVSSDQNHFRGEIEETITESFGNDHSTLDGYSRRTTLSSKMYHTKGQEGSVCLRSSDCASGLCCARHFWSKICKPVLKEGQVCTKHRRKGSHGLEIFQRCYCGEGLSCRIQKDHHQASNSSRLHTCQRH
